Data as given in article doi:10.1101/2021.10.22.465432 (bioRxiv, 2021).

Molecular target: T1, Drosha (mouse (endogenous in N2A), UniProt Q5HZJ0 1-1373)
T1 sequence: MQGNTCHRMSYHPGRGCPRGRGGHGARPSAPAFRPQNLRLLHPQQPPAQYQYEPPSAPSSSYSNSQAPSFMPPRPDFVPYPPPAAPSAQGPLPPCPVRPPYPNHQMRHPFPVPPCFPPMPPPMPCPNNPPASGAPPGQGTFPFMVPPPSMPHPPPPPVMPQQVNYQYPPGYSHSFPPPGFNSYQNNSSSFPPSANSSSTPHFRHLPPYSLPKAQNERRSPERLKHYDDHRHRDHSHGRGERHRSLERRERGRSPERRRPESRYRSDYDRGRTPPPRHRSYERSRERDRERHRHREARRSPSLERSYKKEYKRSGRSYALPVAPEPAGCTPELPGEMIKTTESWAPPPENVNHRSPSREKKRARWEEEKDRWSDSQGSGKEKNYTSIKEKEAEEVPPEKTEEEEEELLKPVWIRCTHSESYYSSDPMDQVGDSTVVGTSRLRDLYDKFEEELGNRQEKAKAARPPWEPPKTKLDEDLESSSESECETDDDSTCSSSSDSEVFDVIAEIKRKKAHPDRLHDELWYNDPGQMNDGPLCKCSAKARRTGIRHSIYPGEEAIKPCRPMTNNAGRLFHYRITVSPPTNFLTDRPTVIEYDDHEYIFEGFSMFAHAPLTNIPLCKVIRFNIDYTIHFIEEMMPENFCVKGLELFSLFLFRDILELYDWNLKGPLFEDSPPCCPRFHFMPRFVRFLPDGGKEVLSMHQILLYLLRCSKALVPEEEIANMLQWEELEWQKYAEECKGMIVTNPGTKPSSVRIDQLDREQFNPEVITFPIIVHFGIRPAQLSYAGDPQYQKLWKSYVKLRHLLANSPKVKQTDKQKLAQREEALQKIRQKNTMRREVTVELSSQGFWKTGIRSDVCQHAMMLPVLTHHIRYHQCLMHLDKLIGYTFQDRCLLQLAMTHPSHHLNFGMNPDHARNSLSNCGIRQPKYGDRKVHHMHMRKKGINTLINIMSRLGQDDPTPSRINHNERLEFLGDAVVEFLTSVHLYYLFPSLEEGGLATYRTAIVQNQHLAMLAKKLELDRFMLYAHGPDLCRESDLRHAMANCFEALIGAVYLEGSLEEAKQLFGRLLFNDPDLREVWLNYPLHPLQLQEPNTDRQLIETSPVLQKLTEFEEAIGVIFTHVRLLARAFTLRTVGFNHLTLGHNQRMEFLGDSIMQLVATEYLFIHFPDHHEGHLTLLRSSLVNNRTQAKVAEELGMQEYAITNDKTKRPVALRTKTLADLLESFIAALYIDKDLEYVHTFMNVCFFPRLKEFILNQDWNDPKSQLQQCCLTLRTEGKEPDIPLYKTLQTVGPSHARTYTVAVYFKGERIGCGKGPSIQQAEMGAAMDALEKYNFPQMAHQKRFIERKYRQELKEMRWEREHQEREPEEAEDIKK
Experiment: co-IP

- fold reduction in binding against Safb1 wild type: 5.7 fold
B1: Safb1-ΔRE-HA (natural protein)
chain: MAETLSGLGDASAAGAAAVSSAASETGTRRLSDLRVIDLRAELKKRNLDSSGNKSVLMERLKKAIEDEGGNPDEIEVTSECNKKMPKRPSKGRKPEDEGVEDNGLEENSGDGQEDVETSLENLQDMDMMDISVLDEADIDNGSVADCVEEEEEATLPEGLADSTELVEGDLKGLPEQLQEHAIDDKDTVNNVDTSSSDFTMLQEMEEASLEPENEKILDILGETCKSEPVKEEGSELEQPFAQATSSVGPDRKLAEEEDLFESCGHPEEEEEEEEEDQEEEQEEEGDLALASSSKSESPSTRCQWSEADAPLAVVKREPADAPGGGTGMDREPVGLEEPVEQSSTAAQLPEATSQELVRAPTAALSPEPQDSKEDVKKFAFDACNDVPAPPKESSASEGADQKMSSVEEDSDTKRLSREEKGRSSCGRNFWVSGLSSTTRATDLKNLFSRYGKVVGAKVVTNARSPGARCYGFVTMSTAEEATKCISHLHKTELHGKMISVEKAKSEPTGKRVPDRRDGDSKKEKASTSDRSANLKREEKGERKDDAKKTDHREREELRRQQELRYEQERRPAVRRPYEVDGRRDDAYWPEAKRAALDDRYHSDFSRQDRFHDFDHRDRGRYPNHSVDRREGSRSMMGDREGQHYPERHGGPERHGRDSRDGWGYGSNKRLSEGRGLPPPPRRDWGEHGRRLEDDRAWQGTADGGMMERDHKRWQGGERSMSGHSGPGHMMNRGGMSGRGSFAPGGASRGHVIPRGGMQAGFGGQSRGSRPSDARFTRRY
